{
  "source": "patent US20230105415A1",
  "about": "(ARIZONA BOARD OF REGENTSON BEHALF OF ARIZONA STATE …, published 2023)",
  "binders": {"B1": {"name": "6D8 antibody (full 6D8 mAb without ZE3 fusion, construct HL) (antibody)", "heavy": "not shown", "light": "DVLMTQSPLSLPVTLGQPASISCRSSQSIVHSNGNTYLEWYLQKPGQSPKLLIYKASNRFSGVPDRFSGSGSGTDFTLKISRVEAEDAGVYYCLQGSHVPSTFGGGTKVEIKTVAAPSVFIFPPSDEQLKSGTASVVCLLNNFYPREAKVQWKVDNALQSGNSQESVTEQDSKDSTYSLSSTLTLSKADYEKHKVYACEVTHQGLSSPVTKSFNRGEC"}},
  "biological_target": "T1, human complement C1q (human, UniProt P02745 23-245; P02746 28-253; P02747 29-245)",
  "T1 construct": "also called human C1q",
  "T1 sequence (P02745 23-245 limits assumed, chain 1 of 3)": "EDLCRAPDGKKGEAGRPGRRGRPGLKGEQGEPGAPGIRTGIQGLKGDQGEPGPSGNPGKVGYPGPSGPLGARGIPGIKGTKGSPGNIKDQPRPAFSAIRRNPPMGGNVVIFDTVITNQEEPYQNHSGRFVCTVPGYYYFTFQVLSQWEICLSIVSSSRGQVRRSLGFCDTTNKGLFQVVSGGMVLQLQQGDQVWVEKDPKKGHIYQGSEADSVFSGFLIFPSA",
  "T1 sequence (P02746 28-253 limits assumed, chain 2 of 3)": "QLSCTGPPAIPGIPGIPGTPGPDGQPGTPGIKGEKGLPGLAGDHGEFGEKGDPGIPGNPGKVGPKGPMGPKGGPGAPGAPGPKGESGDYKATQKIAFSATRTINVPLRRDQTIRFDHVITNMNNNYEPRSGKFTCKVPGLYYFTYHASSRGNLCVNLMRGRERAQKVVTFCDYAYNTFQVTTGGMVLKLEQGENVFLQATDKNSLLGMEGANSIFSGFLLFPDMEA",
  "T1 sequence (P02747 29-245 limits assumed, chain 3 of 3)": "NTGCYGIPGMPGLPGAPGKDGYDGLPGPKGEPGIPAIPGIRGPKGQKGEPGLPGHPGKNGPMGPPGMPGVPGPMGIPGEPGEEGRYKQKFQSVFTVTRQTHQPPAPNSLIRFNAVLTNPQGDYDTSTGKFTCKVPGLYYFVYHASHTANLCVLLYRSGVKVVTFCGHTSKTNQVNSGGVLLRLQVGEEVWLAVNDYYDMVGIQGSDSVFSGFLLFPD",
  "assay": "C1q binding ELISA, GnGn against wt plants (FIG. 9)",
  "data": [
    {"binder": "B1", "values": [
      {"measurement": "binding result", "result": "binds"}
    ]}
  ]
}
